Measurements taken from article PMC9482650, “Quantitative fragmentomics allow affinity mapping of interactomes” (Nature Communications, 2022).

Tests used:
Test in all cases: holdup assay
Design in all cases: key: below the threshold = too weak to quantify, mostly under pKd 3.1 to 4
Settings in all cases: plain residues with an end cap or a label only (N-terminal biotin on a linker: ado-ado)
DLG3_1, Q92796 = molecular target: T1, DLG3_1, Q92796
T1 sequence (Q92796 125-227, limits assumed, looked up): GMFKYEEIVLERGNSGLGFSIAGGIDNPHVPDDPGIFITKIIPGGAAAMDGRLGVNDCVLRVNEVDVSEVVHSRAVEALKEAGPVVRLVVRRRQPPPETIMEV

RADIL, Q96JH8 = molecular target: T2, RADIL, Q96JH8
T2 sequence (Q96JH8 971-1071, limits assumed, looked up): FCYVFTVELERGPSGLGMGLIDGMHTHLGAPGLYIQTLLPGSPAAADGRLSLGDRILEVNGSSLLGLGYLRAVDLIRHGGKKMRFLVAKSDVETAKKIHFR

PTPN13_1, Q12923 = molecular target: T3, PTPN13_1, Q12923
T3 sequence (Q12923 1088-1188, limits assumed, looked up): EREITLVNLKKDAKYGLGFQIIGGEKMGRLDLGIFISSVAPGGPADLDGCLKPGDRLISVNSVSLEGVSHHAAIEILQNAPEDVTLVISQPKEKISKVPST

MAGI2_4, Q86UL8 = molecular target: MAGI2_4, Q86UL8
Chain of MAGI2_4, Q86UL8 (Q86UL8 772-865): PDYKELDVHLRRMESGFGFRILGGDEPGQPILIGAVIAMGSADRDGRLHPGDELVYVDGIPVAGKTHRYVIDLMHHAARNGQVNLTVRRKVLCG

Inadl_10, Q8NI35 = molecular target: Inadl_10, Q8NI35
Chain of Inadl_10, Q8NI35 (Q8NI35 1673-1763): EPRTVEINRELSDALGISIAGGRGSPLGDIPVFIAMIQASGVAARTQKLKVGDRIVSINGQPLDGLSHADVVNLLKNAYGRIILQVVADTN

NHERF4_1, Q86UT5-2 = molecular target: NHERF4_1, Q86UT5-2
Chain of NHERF4_1, Q86UT5-2 (Q86UT5 other isoform, or with tags, fused parts or gaps): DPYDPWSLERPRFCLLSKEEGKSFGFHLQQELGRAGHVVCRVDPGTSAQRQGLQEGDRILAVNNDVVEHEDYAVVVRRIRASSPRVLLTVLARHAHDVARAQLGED

DFNB31_1, Q9P202 = molecular target: T4, DFNB31_1, Q9P202
T4 sequence (Q9P202 135-233, limits assumed, looked up): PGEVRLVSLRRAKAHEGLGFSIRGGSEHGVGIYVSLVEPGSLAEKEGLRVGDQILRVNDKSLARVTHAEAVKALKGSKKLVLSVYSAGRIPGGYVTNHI

MPDZ_5, O75970 = molecular target: T5, MPDZ_5, O75970
T5 sequence (O75970 695-796, limits assumed, looked up): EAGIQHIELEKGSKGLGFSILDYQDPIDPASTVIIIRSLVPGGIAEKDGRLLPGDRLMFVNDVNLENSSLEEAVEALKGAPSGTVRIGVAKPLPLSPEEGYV

FRMPD2_3, Q68DX3 = molecular target: FRMPD2_3, Q68DX3
Chain of FRMPD2_3, Q68DX3 (Q68DX3 1073-1166): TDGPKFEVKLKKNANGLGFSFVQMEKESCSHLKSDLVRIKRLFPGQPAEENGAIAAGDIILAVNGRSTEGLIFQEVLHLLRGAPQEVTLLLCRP

Inadl_3, Q8NI35 = molecular target: Inadl_3, Q8NI35
Chain of Inadl_3, Q8NI35 (Q8NI35 359-469): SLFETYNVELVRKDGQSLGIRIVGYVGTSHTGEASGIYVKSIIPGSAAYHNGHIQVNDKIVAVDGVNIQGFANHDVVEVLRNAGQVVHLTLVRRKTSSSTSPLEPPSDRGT

TJP1_3, Q07157 = molecular target: TJP1_3, Q07157
Chain of TJP1_3, Q07157 (Q07157 416-512): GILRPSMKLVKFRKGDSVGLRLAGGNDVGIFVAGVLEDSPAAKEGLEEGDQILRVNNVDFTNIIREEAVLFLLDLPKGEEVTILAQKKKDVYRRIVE

LIN7A, O14910 = molecular target: T6, LIN7A, O14910
T6 sequence (O14910 103-200, limits assumed, looked up): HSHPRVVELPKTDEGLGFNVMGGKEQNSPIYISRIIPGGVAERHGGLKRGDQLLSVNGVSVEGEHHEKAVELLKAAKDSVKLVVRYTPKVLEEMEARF

RHPN1, Q8TCX5 = molecular target: T7, RHPN1, Q8TCX5
T7 sequence (Q8TCX5 508-602, limits assumed, looked up): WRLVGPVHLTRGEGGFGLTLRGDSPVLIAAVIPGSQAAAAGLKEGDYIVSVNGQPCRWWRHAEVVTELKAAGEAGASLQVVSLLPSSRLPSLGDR

DLG1_3, Q12959 = molecular target: DLG1_3, Q12959
Chain of DLG1_3, Q12959 (Q12959 457-571): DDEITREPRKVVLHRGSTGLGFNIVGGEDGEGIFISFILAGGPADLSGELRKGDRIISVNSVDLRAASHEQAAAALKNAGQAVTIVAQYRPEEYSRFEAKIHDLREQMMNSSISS

PTPN3, P26045 = molecular target: PTPN3, P26045
Chain of PTPN3, P26045 (P26045 505-587): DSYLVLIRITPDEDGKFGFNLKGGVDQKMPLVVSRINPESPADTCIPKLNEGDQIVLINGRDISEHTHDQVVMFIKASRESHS

SNTG2, Q9NY99 = molecular target: T8, SNTG2, Q9NY99
T8 sequence (Q9NY99 68-166, limits assumed, looked up): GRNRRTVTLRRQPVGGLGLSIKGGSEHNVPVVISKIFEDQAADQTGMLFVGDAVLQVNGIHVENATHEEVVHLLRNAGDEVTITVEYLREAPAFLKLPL

DLG3_2, Q92796 = molecular target: T9, DLG3_2, Q92796
T9 sequence (Q92796 221-321, limits assumed, looked up): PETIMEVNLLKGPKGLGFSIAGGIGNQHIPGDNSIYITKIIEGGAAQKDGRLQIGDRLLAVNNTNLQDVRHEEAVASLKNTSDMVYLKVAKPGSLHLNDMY

NHERF3_3, Q5T2W1 = molecular target: T10, NHERF3_3, Q5T2W1
T10 sequence (Q5T2W1 238-333, limits assumed, looked up): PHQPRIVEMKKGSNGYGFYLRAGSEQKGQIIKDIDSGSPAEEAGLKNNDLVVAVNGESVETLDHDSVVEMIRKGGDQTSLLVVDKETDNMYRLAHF

SCRIB_2, Q14160 = molecular target: SCRIB_2, Q14160
Chain of SCRIB_2, Q14160 (Q14160 857-960): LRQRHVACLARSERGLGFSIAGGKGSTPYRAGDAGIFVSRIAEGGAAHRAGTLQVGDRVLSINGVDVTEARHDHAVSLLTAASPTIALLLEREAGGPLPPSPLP

FRMPD2_2, Q68DX3 = molecular target: FRMPD2_2, Q68DX3
Chain of FRMPD2_2, Q68DX3 (Q68DX3 944-1038): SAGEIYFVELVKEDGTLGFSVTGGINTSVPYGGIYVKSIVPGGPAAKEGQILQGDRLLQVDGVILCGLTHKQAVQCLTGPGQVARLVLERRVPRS

GORASP2, Q9H8Y8 = molecular target: GORASP2, Q9H8Y8
SNTG1, Q9NSN8 = molecular target: T11, SNTG1, Q9NSN8
T11 sequence (Q9NSN8 52-150, limits assumed, looked up): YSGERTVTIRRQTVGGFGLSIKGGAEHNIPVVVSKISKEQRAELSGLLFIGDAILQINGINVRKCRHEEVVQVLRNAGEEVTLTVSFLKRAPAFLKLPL

LNX1_2, Q8TBB1 = molecular target: LNX1_2, Q8TBB1
Chain of LNX1_2, Q8TBB1 (Q8TBB1 371-470): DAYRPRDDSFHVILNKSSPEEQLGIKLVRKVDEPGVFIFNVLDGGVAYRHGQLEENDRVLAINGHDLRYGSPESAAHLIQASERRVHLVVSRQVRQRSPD

LIMK2, P53671 = molecular target: LIMK2, P53671
Chain of LIMK2, P53671 (P53671 143-248): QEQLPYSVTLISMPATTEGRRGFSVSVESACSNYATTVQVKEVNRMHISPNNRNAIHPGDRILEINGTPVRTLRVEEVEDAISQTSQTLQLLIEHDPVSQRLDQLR

MAGI1_2, Q96QZ7 = molecular target: MAGI1_2, Q96QZ7
Chain of MAGI1_2, Q96QZ7 (Q96QZ7 456-580): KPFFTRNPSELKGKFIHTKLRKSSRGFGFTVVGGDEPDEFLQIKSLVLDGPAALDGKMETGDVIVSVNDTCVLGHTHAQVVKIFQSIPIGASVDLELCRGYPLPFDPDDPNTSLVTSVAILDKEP

Inadl_9, Q8NI35 = molecular target: Inadl_9, Q8NI35
Chain of Inadl_9, Q8NI35 (Q8NI35 1530-1615): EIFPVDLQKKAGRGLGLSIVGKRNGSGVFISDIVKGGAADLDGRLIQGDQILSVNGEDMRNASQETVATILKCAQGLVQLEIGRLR

AHNAK1, Q09666 = molecular target: AHNAK1, Q09666
Chain of AHNAK1, Q09666 (Q09666 4-100): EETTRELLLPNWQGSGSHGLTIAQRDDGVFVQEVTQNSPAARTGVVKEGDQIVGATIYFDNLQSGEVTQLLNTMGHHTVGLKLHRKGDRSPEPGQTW

Measured: pKd

ASGLDKRDYV [CLDN9, O95484]
3.51: Inadl_9, Q8NI35
4.08: RADIL, Q96JH8
below the threshold: all other assays above

PDSNPEESSV [SEMA4C, Q9C0C4]
3.57: Inadl_9, Q8NI35
3.65: DLG1_3, Q12959
3.7: NHERF4_1, Q86UT5-2
3.73: DLG3_2, Q92796
4: DFNB31_1, Q9P202
4.04: SNTG2, Q9NY99
4.43: SCRIB_2, Q14160
4.83: PTPN3, P26045
4.27: FRMPD2_2, Q68DX3
4.7: RHPN1, Q8TCX5
3.54: FRMPD2_3, Q68DX3
4.65: SNTG1, Q9NSN8
below the threshold: all other assays above

NPETRDETQL [KCNT1, Q5JUK3]
4.05: SCRIB_2, Q14160
4.08: SNTG2, Q9NY99
4.78: PTPN3, P26045
4.43: RHPN1, Q8TCX5
3.54: PTPN13_1, Q12923
4.02: DFNB31_1, Q9P202
3.9: NHERF4_1, Q86UT5-2
below the threshold: all other assays above

SSGSTSSSRI [ADGRG1, Q9Y653]
3.93: RHPN1, Q8TCX5
3.87: DLG1_3, Q12959
4.27: DFNB31_1, Q9P202
3.86: PTPN3, P26045
3.68: SNTG2, Q9NY99
3.77: MAGI2_4, Q86UL8
3.54: DLG3_1, Q92796
3.75: DLG3_2, Q92796
3.57: GORASP2, Q9H8Y8
below the threshold: all other assays above

PEEGKKQSQC [GAGE12J, A6NER3]
3.51: SNTG2, Q9NY99
4.04: DLG3_2, Q92796
3.91: PTPN3, P26045
3.79: NHERF4_1, Q86UT5-2
below the threshold: all other assays above
